Test results published in patent publication US20090130105A1 (Biogen, published 2009).

Columns and labels:
Assay in all cases: SPR, Fab over captured mutant
[1] = target: T1, hIGF-1R-Fc mutant SD015 (H464E) (human, UniProt P08069 31-933)
T1 construct: not shown: human IgG1 Fc, C-terminal tag
Protocol: (§1) Surface plasmon resonance (SPR) experiments were performed on a Biacore 3000 instrument set to 25° C. […] The antibody sensorchip surfaces were prepared by injecting each antibody (diluted 100 μg/mL in 10 mM Acetate, pH 4.0) over EDC/NHS-activated sensorchip surfaces according to the standard protocol of the manufacturer. […] Both hIGF-1R-Fc and mIGF-1R-Fc proteins oligomerize due to the incorporation of two separate homodimeric regions (IGF-1R and IgG1-Fc). […] After, completion of the receptor-Fc loading step, flow rates were elevated to 5 μl/min. […] Dissociation was measured for 7 minutes after the antibody injections were complete. Finally, the flow rate was elevated to 30 μL/min and the chip surfaces were regenerated by 2×10 μL injections of 0.1 M glycine, pH 2.

[2] = target: T2, hIGF-1R-Fc mutant SD102 (E459A, S460A) (human, UniProt P08069 31-933)
T2 construct: not shown: human IgG1 Fc, C-terminal tag
T2 sequence (P08069 31-933 E489A/S490A): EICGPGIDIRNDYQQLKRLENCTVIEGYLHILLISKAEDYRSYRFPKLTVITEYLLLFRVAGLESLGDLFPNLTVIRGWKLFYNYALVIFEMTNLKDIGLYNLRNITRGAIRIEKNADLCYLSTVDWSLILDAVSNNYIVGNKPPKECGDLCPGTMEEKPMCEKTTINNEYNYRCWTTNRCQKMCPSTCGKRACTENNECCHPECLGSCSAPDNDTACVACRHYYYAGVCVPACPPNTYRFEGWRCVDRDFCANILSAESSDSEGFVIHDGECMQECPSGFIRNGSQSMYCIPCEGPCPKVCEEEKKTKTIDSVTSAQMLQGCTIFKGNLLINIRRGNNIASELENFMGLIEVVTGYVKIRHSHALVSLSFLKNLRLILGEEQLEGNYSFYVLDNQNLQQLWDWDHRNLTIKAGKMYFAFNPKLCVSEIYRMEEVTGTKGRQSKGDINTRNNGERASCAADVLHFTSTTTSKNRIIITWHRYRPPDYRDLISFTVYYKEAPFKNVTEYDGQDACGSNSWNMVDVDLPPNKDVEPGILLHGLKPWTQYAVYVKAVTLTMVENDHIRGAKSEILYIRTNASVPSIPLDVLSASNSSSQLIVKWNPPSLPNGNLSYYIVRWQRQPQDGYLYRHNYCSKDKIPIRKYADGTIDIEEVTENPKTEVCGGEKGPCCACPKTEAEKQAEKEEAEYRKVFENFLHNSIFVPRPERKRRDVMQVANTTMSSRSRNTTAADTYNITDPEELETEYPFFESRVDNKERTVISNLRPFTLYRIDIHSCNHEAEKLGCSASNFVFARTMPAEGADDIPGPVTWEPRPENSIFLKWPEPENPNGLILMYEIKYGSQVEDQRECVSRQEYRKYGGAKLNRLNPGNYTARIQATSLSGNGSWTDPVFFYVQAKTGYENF
Protocol: as §1

[3] = target: T3, hIGF-1R-Fc mutant SD103 (D461A, V462T) (human, UniProt P08069 31-933)
T3 construct: not shown: human IgG1 Fc, C-terminal tag
T3 sequence (P08069 31-933 D491A/V492T): as the sequence (P08069 31-933 E489A/S490A) above, with A459E, A460S, D461A, V462T counted along it
Protocol: as §1

[4] = target: T4, hIGF-1R-Fc mutant SD104 (H464A) (human, UniProt P08069 31-933)
T4 construct: not shown: human IgG1 Fc, C-terminal tag
T4 sequence (P08069 31-933 H494A): as the sequence (P08069 31-933 E489A/S490A) above, with A459E, A460S, H464A counted along it
Protocol: as §1

[5] = target: T5, hIGF-1R-Fc mutant SD108 (H480E) (human, UniProt P08069 31-933)
T5 construct: not shown: human IgG1 Fc, C-terminal tag
T5 sequence (P08069 31-933 H510E): as the sequence (P08069 31-933 E489A/S490A) above, with A459E, A460S, H480E counted along it
Protocol: as §1

[6] = target: T6, hIGF-1R-Fc mutant SD109 (Y482A, R483W) (human, UniProt P08069 31-933)
T6 construct: not shown: human IgG1 Fc, C-terminal tag
T6 sequence (P08069 31-933 Y512A/R513W): as the sequence (P08069 31-933 E489A/S490A) above, with A459E, A460S, Y482A, R483W counted along it
Protocol: as §1

[7] = target: T7, hIGF-1R-Fc mutant SD110 (E533H) (human, UniProt P08069 31-933)
T7 construct: not shown: human IgG1 Fc, C-terminal tag
T7 sequence (P08069 31-933 E563H): as the sequence (P08069 31-933 E489A/S490A) above, with A459E, A460S, E533H counted along it
Protocol: as §1

[8] = target: T8, hIGF-1R-Fc mutant SD113 (E570A, I571T) (human, UniProt P08069 31-933)
T8 construct: not shown: human IgG1 Fc, C-terminal tag
T8 sequence (P08069 31-933 E600A/I601T): as the sequence (P08069 31-933 E489A/S490A) above, with A459E, A460S, E570A, I571T counted along it
Protocol: as §1

Measured: binding result

T1 sequence (P08069 31-933 H494E): as the sequence (P08069 31-933 E489A/S490A) above, with A459E, A460S, H464E counted along it

B1: M14-C03 Fab (Fab, V domains shown)
VH: EVQLLESGGGLVQPGGSLRLSCAASGFTFSKYMMSWVRQAPGKGLEWVSYISPSGGLTWYADSVKGRFTISRDNSKNTLYLQMNSLRAEDTAVYYCARDGARGYGMDVWGQGTTVTVSS
VL: DIQMTQSPATLSLSPGERATLSCRASQSVSSYLAWYQQKPGQAPRLLIYDASNRATGIPARFSGSGSGTDFTLTISSLEPEDFAVYYCQQRSNWPPEVTFGPGTKVDIK
notes: Enzymatically derived Fab
no binding (tested: up to 30 nM Fab): all assays above
